Measurements published in the supplement of paper PMC12764529.
± gives the half width of the 95% confidence interval.

Assays:
[1] = folding stability dG unfold from chymotrypsin proteolysis; higher = more stable
Summary of the method: (§1)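 Bayesian fitting of sequencing counts gave K50 for each design. Unfolding free energy followed by setting this against a sequence-predicted unfolded-state K50 and a shared folded-state K50, either per protease or with trypsin and chymotrypsin combined. The designs, under 80 residues and lacking cysteine, were digested in a PA-tagged cDNA display format at 11 threefold-diluted protease concentrations and without protease, and only those with AlphaFold2 dimer inter-PAE above 15 were kept.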

[2] = folding stability dG unfold from trypsin proteolysis; higher = more stable
Summary of the method: as §1

[3] = folding stability dG unfold (combined trypsin and chymotrypsin); higher = more stable
Summary of the method: as §1

SAGIVIPINNPEQAEELAKEFAPEYGYEVEIERVPPGEPLEELPPNDIIVHDPDSGWFYKIKIKRPDEKSAG [r5_173_TrROS]
folding stability dG unfold [1]: 0.134 ± 0.43 kcal/mol
folding stability dG unfold [2]: 0.38 ± 0.1 kcal/mol
folding stability dG unfold [3]: 0.29 ± 0.24 kcal/mol

SAGGKKIEIKEGDTVKLKNATITLNGKTFKIKDAEAKVVKVDKKKKKVIIEITLKNGKKETFVFDIKSAGGS [r8_215_TrROS_Hall]
folding stability dG unfold [1]: 3.331 ± 0.026 kcal/mol
folding stability dG unfold [2]: 2.4 ± 0.13 kcal/mol
folding stability dG unfold [3]: 3.15 ± 0.16 kcal/mol

SAKKKYIAKVLIEKGDKIIEIEIPGDATVKNPDGKEYTFKVESPEKLKEAIKKLFPEKYPAKILEVKEESAG [r14_41_TrMRF]
folding stability dG unfold [1]: 1.73 ± 0.087 kcal/mol
folding stability dG unfold [2]: 1.18 ± 0.058 kcal/mol
folding stability dG unfold [3]: 1.54 ± 0.18 kcal/mol

SMSEKVEIDPAAIAEALKAGTEYEFDIKVTVTLFDPSNGKKVSTEEKVVKVKLKIPPPSPLPDPKNGYLLSA [r9_396_JUSTAS]
folding stability dG unfold [1]: 1.4 ± 0.079 kcal/mol
folding stability dG unfold [2]: 1.11 ± 0.038 kcal/mol
folding stability dG unfold [3]: 1.29 ± 0.2 kcal/mol

SAGGKVVVVPFPGPVTPETVAALAAKFIEEGLYDVPLVVVSEVEGRRPDGRPGRRRFGFVYVAKAPKSAGGS [r16_44_TrMRF]
folding stability dG unfold [1]: 1.98 ± 0.13 kcal/mol
folding stability dG unfold [2]: 1.23 ± 0.051 kcal/mol
folding stability dG unfold [3]: 1.59 ± 0.1 kcal/mol

SAGGSAGGSGKPLLLVRLKIRNKETGEEETVVLEADSLDEALARLPPGAEIVSIEVVRLDLPPSAGGSAGGS [r12_208_TrROS_Hall]
folding stability dG unfold [1]: 5.38 ± 0.075 kcal/mol
folding stability dG unfold [2]: 4.34 ± 0.16 kcal/mol
folding stability dG unfold [3]: 5.34 ± 0.13 kcal/mol

KIEIKVHPDGTLLIKAPLELIDLLIKLLKEKGYDAKILKIDPENGYVLIPVKPKPPPIPKPTPEELLKALFS [r1_78_TrMRF]
folding stability dG unfold [1]: 3.78 ± 0.1 kcal/mol
folding stability dG unfold [2]: 2.29 ± 0.096 kcal/mol
folding stability dG unfold [3]: 3.35 ± 0.2 kcal/mol

SAGGPMYIVIKVEVWNPDNGKKREINIVIPIPPGMTPEQMLEKAKELARTIAEENGYEVRIDEIHIFSAGGS [r8_312_TrROS]
folding stability dG unfold [1]: 2.862 ± 0.02 kcal/mol
folding stability dG unfold [2]: 3.13 ± 0.087 kcal/mol
folding stability dG unfold [3]: 3.03 ± 0.098 kcal/mol

SAGGSAGGSAMKFPKGAKIEIVVTEDKVYVRIKTPGGKEIEVEMTLEELKKLGFEVEIVEEESAGGSAGGSA [r18_125_TrROS_Hall]
folding stability dG unfold [1]: 2.27 ± 0.061 kcal/mol
folding stability dG unfold [2]: 1.75 ± 0.086 kcal/mol
folding stability dG unfold [3]: 2.19 ± 0.15 kcal/mol

SAGGSAGGSAGGVPRLERFTLSPNGLPVRIFVDGDRALVVFEGPDGGLAVATFAVSDIPFSAGGSAGGSAGG [r7_653_TrMRF]
folding stability dG unfold [1]: 1.62 ± 0.047 kcal/mol
folding stability dG unfold [2]: 0.857 ± 0.03 kcal/mol
folding stability dG unfold [3]: 1.31 ± 0.064 kcal/mol

SAGGSAGGSAMSEEEKKKKKPKLEIKVKVEFTVDENGTVRAKVTFEDGTTLEVEIKLPPELLSAGGSAGGSA [r18_192_TrROS_Hall]
folding stability dG unfold [1]: 1.49 ± 0.059 kcal/mol
folding stability dG unfold [2]: 1.92 ± 0.094 kcal/mol
folding stability dG unfold [3]: 1.7 ± 0.11 kcal/mol

SAGGSAGGSAGGSKPKKIKVETVTLEDGLTLQVVVNEDTKEKVIVLVPPSEEVTVLVEPSAGGSAGGSAGGS [r4_99_TrROS_Hall]
folding stability dG unfold [1]: 1.11 ± 0.076 kcal/mol
folding stability dG unfold [2]: -0.249 ± 0.31 kcal/mol
folding stability dG unfold [3]: 0.648 ± 0.15 kcal/mol

SAGGSAGGSAGGIAEALKAAFPDEGVEVVSIHPDGKVEVRVDGTPELREKVEKAVKELLSSAGGSAGGSAGG [r11_418_TrMRF]
folding stability dG unfold [1]: 0.621 ± 0.067 kcal/mol
folding stability dG unfold [2]: 1.08 ± 0.087 kcal/mol
folding stability dG unfold [3]: 0.798 ± 0.18 kcal/mol

SAGGSAGGSAGGEEKEVYLVRFRRPDGSEVTVVAPWEDLEEIVKSLPEAVEVEVEKAPLSAGGSAGGSAGGS [r10_437_TrMRF]
folding stability dG unfold [1]: 2.22 ± 0.089 kcal/mol
folding stability dG unfold [2]: 1.58 ± 0.042 kcal/mol
folding stability dG unfold [3]: 1.98 ± 0.17 kcal/mol

SGLKPNEVKKFTFSFPVTDPVTGKEVTATVELYVSAGNPFVVVKLTVTPPDGKTETKTFVVPPGATLTIDSA [r9_88_TrMRF]
folding stability dG unfold [1]: 3.598 ± 0.028 kcal/mol
folding stability dG unfold [2]: 1.73 ± 0.054 kcal/mol
folding stability dG unfold [3]: 3.2 ± 0.17 kcal/mol

SAGGSAGGSAMKIELTVPPGEEAELEARAKALAEAEGVEVVSVSKSPEGTYTMTVLNTVPPESAGGSAGGSA [r18_351_JUSTAS]
folding stability dG unfold [1]: -0.164 ± 0.19 kcal/mol
folding stability dG unfold [2]: 0.532 ± 0.058 kcal/mol
folding stability dG unfold [3]: 0.317 ± 0.098 kcal/mol

SAGGSAPVVVVVTPKNGKPIKLKFKFTKKEEAEAAVEEIKKALPKNTKVEAFYVDEEVVKEDKEYLSAGGSA [r15_469_TrMRF]
folding stability dG unfold [1]: 1.97 ± 0.068 kcal/mol
folding stability dG unfold [2]: 1.16 ± 0.017 kcal/mol
folding stability dG unfold [3]: 1.71 ± 0.054 kcal/mol

SAGTLVLVIEVPLEDVTPEQAEEIAEEAARFLREAGLPEGIEVEDVRVERLPDGRLLVLLPMRILEDESAGG [r19_87_TrMRF]
folding stability dG unfold [1]: 2.59 ± 0.059 kcal/mol
folding stability dG unfold [2]: 1.97 ± 0.056 kcal/mol
folding stability dG unfold [3]: 2.41 ± 0.14 kcal/mol

SAGGSAGGSAGGMNPVSKVTKHSGPNGQVTETTTYFDPASGKTTVTYTDLVTGTTSTISTSAGGSAGGSAGG [r11_1063_JUSTAS]
folding stability dG unfold [1]: -1.02 ± 0.41 kcal/mol
folding stability dG unfold [2]: -0.579 ± 0.047 kcal/mol
folding stability dG unfold [3]: -0.823 ± 0.17 kcal/mol

SAGGSAIWIPADEIRELAKEPGLEVEKEPQPDGMLHFTIKNPKNGKRITIVVWDPENGWWHIMPIPSAGGSA [r15_442_TrROS]
folding stability dG unfold [1]: 0.854 ± 0.098 kcal/mol
folding stability dG unfold [2]: 0.947 ± 0.019 kcal/mol
folding stability dG unfold [3]: 0.928 ± 0.083 kcal/mol

NKAQKLARSLARKFMRPHGYPMEIDPENNSIRFPNGEPIMEIPIDIVLLDDDGKIVEEINIPIRIRMRPPKS [r1_318_TrROS]
folding stability dG unfold [1]: 0.782 ± 0.27 kcal/mol
folding stability dG unfold [2]: 0.695 ± 0.16 kcal/mol
folding stability dG unfold [3]: 0.762 ± 0.23 kcal/mol
